# Starred links: 1 amine or outer side, 2 acyl side, 3 side chain; linkers in the order of their positions; H or OH if unused. Non-standard residues stand in square brackets, D forms with d. Groups on a side chain read outwards from the residue. Primed or numbered codes have the meaning given here. No end group written: not given here. *: point of attachment. γGlu = O=C(O)[C@H](CCC(=O)[*:2])N[*:1]; Stearoyl = CCCCCCCCCCCCCCCCCC(=O)*; αMeF = C[C@](N)(Cc1ccccc1)C(=O)O; αMeK = C[C@](N)(CCCCN)C(=O)O; αMeS = C[C@](N)(CO)C(=O)O; PEG2′ = not defined here; Aib = CC(C)(N)C(=O)O
# T1: GLP-1R (INS1e assay) (UniProt P32301 22-463, limits assumed)
# T1 sequence (looked up): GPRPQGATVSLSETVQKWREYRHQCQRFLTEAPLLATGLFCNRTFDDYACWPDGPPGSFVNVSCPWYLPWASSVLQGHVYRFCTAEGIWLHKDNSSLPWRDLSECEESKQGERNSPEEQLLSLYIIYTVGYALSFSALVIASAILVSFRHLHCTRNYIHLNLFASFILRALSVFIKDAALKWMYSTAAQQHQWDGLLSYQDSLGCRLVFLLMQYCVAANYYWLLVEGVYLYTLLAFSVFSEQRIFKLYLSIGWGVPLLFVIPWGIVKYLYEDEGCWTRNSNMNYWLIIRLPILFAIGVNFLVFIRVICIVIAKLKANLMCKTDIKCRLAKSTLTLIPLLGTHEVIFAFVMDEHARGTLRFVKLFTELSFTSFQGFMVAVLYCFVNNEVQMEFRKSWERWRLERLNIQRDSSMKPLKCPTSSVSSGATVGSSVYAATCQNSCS
# Target: T1, GLP-1R (INS1e assay)
# Assay: cell-based or functional assay
Binder,INS1e assay EC50 GLP-1 R n1,INS1e assay EC50 GLP-1 R n2,INS1e assay EC50 Mean pM GLP-1R
H[Aib]EGS[αMeF]TSDVSK([PEG2′-PEG2′-γGlu-Stearoyl])YLEGEAA[αMeK]E[αMeF]IA[αMeF]VVEGG-NH2 [SEQ ID NO 60],14.3 nM,12.1 nM,13200 pM
H[Aib]EGS[αMeF]TSDVSK([PEG2′-PEG2′-PEG2′-Stearoyl])YLEGEAAEE[αMeF]IA[αMeF]VVEGG-NH2 [SEQ ID NO 62],0.209 nM,0.0837 nM,146 pM
H[Aib]EGS[αMeF]TSDVSK([PEG2′-PEG2′-PEG2′-Stearoyl])YLEGEAAKE[αMeF]IA[αMeF]VVEGG-NH2 [SEQ ID NO 61],0.00557 nM,0.0135 nM,10 pM
H[Aib]EGS[αMeF]TSDV[αMeS]S[αMeF]LEGEAAKEFIK([PEG2′-PEG2′-γGlu-Stearoyl])WVVEGG-NH2 [SEQ ID NO 65],2.57 nM,3.74 nM,3160 pM
H[Aib]EGS[αMeF]TSDVSK([PEG2′-PEG2′-PEG2′-Stearoyl])YLEGEAA[Aib]E[αMeF]IA[αMeF]VVEGG-NH2 [SEQ ID NO 63],0.0231 nM,0.0392 nM,31 pM
H[Aib]EGS[αMeF]TSDVSK([PEG2′-PEG2′-PEG2′-Stearoyl])YLEGEAA[αMeK]E[αMeF]IA[αMeF]VVEGG-NH2 [SEQ ID NO 64],0.0068 nM,0.0121 nM,9 pM

# Other lines, results leading:
INS1e assay EC50 GLP-1 R n1,INS1e assay EC50 GLP-1 R n2,INS1e assay EC50 Mean pM GLP-1R,Binder
2.69 nM,4.87 nM,3780 pM,H[Aib]EGS[αMeF]TSDV[αMeS]S[αMeF]LEGEAA[αMeK]EFIK([PEG2′-PEG2′-γGlu-Stearoyl])WVVEGG-NH2 [SEQ ID NO 68]
45.6 nM,38.8 nM,42200 pM,H[Aib]EGS[αMeF]TSDV[αMeS]S[αMeF]LEGEAAEEFIK([PEG2′-PEG2′-γGlu-Stearoyl])WVVEGG-NH2 [SEQ ID NO 66]
19.2 nM,25 nM,22100 pM,H[Aib]EGS[αMeF]TSDV[αMeS]S[αMeF]LEGEAAAEFIK([PEG2′-PEG2′-γGlu-Stearoyl])WVVEGG-NH2 [SEQ ID NO 69]
6.15 nM,18.1 nM,12100 pM,H[Aib]EGS[αMeF]TSDV[αMeS]S[αMeF]LEGEAA[Aib]EFIK([PEG2′-PEG2′-γGlu-Stearoyl])WVVEGG-NH2 [SEQ ID NO 67]
